US20240400618A1 (GRIFOLS DIAGNOSTIC SOLUTIONS, published 2024)
Like-named read-outs stand apart in the source and are kept apart here.

Assays:
[1] = molecular target: T1, pxENB17-RBD-His (SARS-CoV-2, UniProt P0DTC2 319-541); assay: BLI (Octet), ACE2 construct loaded on SA tips by its tag, RBD as analyte
T1 construct: domain: RBD

[2] = molecular target: T1, pxENB17-RBD-His
[3] = molecular target: T2, pxENB9-FLS-CT-His (SARS-CoV-2, UniProt P0DTC2 15-1213)
[4] = molecular target: T2, pxENB9-FLS-CT-His; remark: listed apart in the source
[5] = molecular target: T3, pxENB5-his-TEV-FLS (SARS-CoV-2, UniProt P0DTC2 14-1213)
[6] = molecular target: T2, pxENB9-FLS-CT-His; remark: listed apart in the source
[7] = molecular target: T4, pxENB8-FLS-TN-His (SARS-CoV-2, UniProt P0DTC2 15-1213)
[8] = molecular target: T5, pxENB12-FLS-His (SARS-CoV-2, UniProt P0DTC2 15-1213)
[9] = molecular target: T6, pxENB2-His-TEV-FLS-CT (SARS-CoV-2, UniProt P0DTC2 14-1213)
[10] = molecular target: T7, pxENB1-His-TEV-FLS-TN (SARS-CoV-2, UniProt P0DTC2 14-1213)
[11] = molecular target: pxENBCP17-FLS-CT-His-SBP (SARS-CoV-2, UniProt P0DTC2 15-1213)
[12] = molecular target: pxENBCP19-FLS-CT-His-StrepTagII (SARS-CoV-2, UniProt P0DTC2 15-1213)
[13] = molecular target: pxENBCP20-FLS-CT-His-TST (SARS-CoV-2, UniProt P0DTC2 15-1213)
[14] = molecular target: commercial RBD protein (SARS-CoV-2, UniProt P0DTC2 319-541)
[15] = molecular target: pxEBNCP3-S1-His (SARS-CoV-2, UniProt P0DTC2 15-681)
[16] = molecular target: pxAM-FLS-A-TB-His (SARS-CoV-2, UniProt P0DTC2 15-1213)
[17] = molecular target: T1, pxENB17-RBD-His; remark: listed apart in the source
[18] = molecular target: T3, pxENB5-his-TEV-FLS; remark: listed apart in the source
[19] = molecular target: pxEBNCP15-mIgGHC-FLS-CT-His (SARS-CoV-2, UniProt P0DTC2 16-1213)
[20] = molecular target: pxENB14-His-TEV-RBD (SARS-CoV-2, UniProt P0DTC2 319-541)
[21] = molecular target: pxEBNCP16-IL2-FLS-CT-His (SARS-CoV-2, UniProt P0DTC2 16-1213)
[22] = molecular target: pxENBEP17_TPA_Nuc(1-182)_Spike (15-1216, GAAS, PP)_10xHis (SARS-CoV-2)
[23] = molecular target: pxEBNCP14-tPa-FLS-CT-His (SARS-CoV-2, UniProt P0DTC2 16-1213)
[24] = molecular target: T2, pxENB9-FLS-CT-His; remark: listed apart in the source
[25] = molecular target: pxEBNCP1-His-TEV-S1 (SARS-CoV-2, UniProt P0DTC2 14-680)
[26] = molecular target: pxENBEP18_Spike_Nuc(1-182)_10xHis (SARS-CoV-2)
[27] = molecular target: T4, pxENB8-FLS-TN-His; remark: listed apart in the source
[28] = molecular target: T5, pxENB12-FLS-His; remark: listed apart in the source
[29] = molecular target: T6, pxENB2-His-TEV-FLS-CT; remark: listed apart in the source
[30] = molecular target: pxEBNCP4-tPa-S1-His (SARS-CoV-2, UniProt P0DTC2 15-681)
[31] = molecular target: T7, pxENB1-His-TEV-FLS-TN; remark: listed apart in the source
[32] = molecular target: pxEBNCP2-tPa-His-TEV-S1 (SARS-CoV-2, UniProt P0DTC2 14-680)
[33] = molecular target: T1, pxENB17-RBD-His; remark: listed apart in the source

B1: pxEBN9-ACE2-AAA-SBP-His (receptor)
chain: QSTIEEQAKTFLDKFNHEAEDLFYQSSLASWNYNTNITEENVQNMNNAGDKWSAFLKEQSTLAQMYPLQEIQNLTVKLQLQALQQNGSSVLSEDKSKRLNTILNTMSTIYSTGKVCNPDAPAECLLLEPGLNEIMANSLDYNERLWAWESWRSEVGKALRPLYEEYVVLKNEMARANHYEDYGDYWRGDYEVNGVDGYDYSRGQLIEDVEHTFEEIKPLYEHLHAYVRAKLMNAYPSYISPIGCLPAHLLGDMWGRFWTNLYSLTVPFGQKPNIDVTDAMVDQAWDAQRIFKEAEKFFVSVGLPNMTQGFWENSMLTDPGNVQKAVCHPTAWDLGKGDFRILMCTKVTMDDFLTAHHEMGHIQYDMAYAAQPFLLRNGANEGFHEAVGEIMSLSAATPKHLKSIGLLSPDFQEDNETEINFLLKQALTIVGTLPFTYMLEKWRWMVFKGEIPKDQWMKKWWEMKREIVGVVEPVPHDETYCDPASLFHVSNDYSFIRYYTRTLYQFQFQEALCQAAKHEGPLHKCDISNSTEAGQKLFNMLRLGKSEPWTLALENVVGAKNMNVRPLLNYFEPLFTWLKDQNKNSFVGWSTDWSPYADGGGSMDEKTTGWRGGHVVEGLAGELEQLRARLEHHPQGQREPHHHHHHHH
[1]
  Response, shift in Wavelength (nm): 0.0002 nm
[2]
  Kd: 32600 nM
[3]
  Kd: 13400 nM

B2: pxEBN4-ACE2-AAA-His (receptor)
chain: QSTIEEQAKTFLDKFNHEAEDLFYQSSLASWNYNTNITEENVQNMNNAGDKWSAFLKEQSTLAQMYPLQEIQNLTVKLQLQALQQNGSSVLSEDKSKRLNTILNTMSTIYSTGKVCNPDAPAECLLLEPGLNEIMANSLDYNERLWAWESWRSEVGKALRPLYEEYVVLKNEMARANHYEDYGDYWRGDYEVNGVDGYDYSRGQLIEDVEHTFEEIKPLYEHLHAYVRAKLMNAYPSYISPIGCLPAHLLGDMWGRFWTNLYSLTVPFGQKPNIDVTDAMVDQAWDAQRIFKEAEKFFVSVGLPNMTQGFWENSMLTDPGNVQKAVCHPTAWDLGKGDFRILMCTKVTMDDFLTAHHEMGHIQYDMAYAAQPFLLRNGANEGFHEAVGEIMSLSAATPKHLKSIGLLSPDFQEDNETEINFLLKQALTIVGTLPFTYMLEKWRWMVFKGEIPKDQWMKKWWEMKREIVGVVEPVPHDETYCDPASLFHVSNDYSFIRYYTRTLYQFQFQEALCQAAKHEGPLHKCDISNSTEAGQKLFNMLRLGKSEPWTLALENVVGAKNMNVRPLLNYFEPLFTWLKDQNKNSFVGWSTDWSPYADGGGSHHHHHHHH
[4]
  Kd: 36.6 nM
[5]
  Kd: 16.6 nM
[6]
  Kd: < 0.001 nM
[7]
  Kd: 6.51 nM
[8]
  Kd: 3.19 nM
[9]
  Kd: 1.1 nM
[10]
  Kd: 3.9 nM
[11]
  Kd: 51.5 nM
[12]
  Kd: 90.8 nM
[13]
  Kd: 51.6 nM
[14]
  Kd: 0.2 nM
[15]
  Kd: 39.6 nM
[16]
  Kd: 0.00709 nM
[17]
  Kd: 0.242 nM
[18]
  Kd: 19.5 nM
[19]
  Kd: < 0.001 nM
[20]
  Kd: 0.156 nM
[21]
  Kd: 1.46 nM
[22]
  Kd: 26.9 nM
[23]
  Kd: 0.00613 nM
[24]
  Kd: < 0.001 nM
[25]
  Kd: 22.8 nM
[26]
  Kd: 21.6 nM
[27]
  Kd: 12.4 nM
[28]
  Kd: 13.1 nM
[29]
  Kd: 0.45 nM
[30]
  Kd: 45 nM
[31]
  Kd: 69.2 nM
[32]
  Kd: 34.2 nM
[33]
  Kd: 32.6 nM

B3: pxEBNCP24_hACE2-AAA-p53-SBP (receptor)
chain: QSTIEEQAKTFLDKFNHEAEDLFYQSSLASWNYNTNITEENVQNMNNAGDKWSAFLKEQSTLAQMYPLQEIQNLTVKLQLQALQQNGSSVLSEDKSKRLNTILNTMSTIYSTGKVCNPDAPAECLLLEPGLNEIMANSLDYNERLWAWESWRSEVGKALRPLYEEYVVLKNEMARANHYEDYGDYWRGDYEVNGVDGYDYSRGQLIEDVEHTFEEIKPLYEHLHAYVRAKLMNAYPSYISPIGCLPAHLLGDMWGRFWTNLYSLTVPFGQKPNIDVTDAMVDQAWDAQRIFKEAEKFFVSVGLPNMTQGFWENSMLTDPGNVQKAVCHPTAWDLGKGDFRILMCTKVTMDDFLTAHHEMGHIQYDMAYAAQPFLLRNGANEGFHEAVGEIMSLSAATPKHLKSIGLLSPDFQEDNETEINFLLKQALTIVGTLPFTYMLEKWRWMVFKGEIPKDQWMKKWWEMKREIVGVVEPVPHDETYCDPASLFHVSNDYSFIRYYTRTLYQFQFQEALCQAAKHEGPLHKCDISNSTEAGQKLFNMLRLGKSEPWTLALENVVGAKNMNVRPLLNYFEPLFTWLKDQNKNSFVGWSTDWSPYADGGGSKPLDGEYFTLQIRGRERFEMFRELNEALELKDAQAGKEPGGGSGMDEKTTGWRGGHVVEGLAGELEQLRARLEHHPQGQREP
[1]
  Response, shift in Wavelength (nm): 0.028 nm
[2]
  Kd: 0.231 nM
[3]
  Kd: 0.001 nM

B4: pxEBNCP13_hACE2-AAA-SBP (receptor)
chain: QSTIEEQAKTFLDKFNHEAEDLFYQSSLASWNYNTNITEENVQNMNNAGDKWSAFLKEQSTLAQMYPLQEIQNLTVKLQLQALQQNGSSVLSEDKSKRLNTILNTMSTIYSTGKVCNPDAPAECLLLEPGLNEIMANSLDYNERLWAWESWRSEVGKALRPLYEEYVVLKNEMARANHYEDYGDYWRGDYEVNGVDGYDYSRGQLIEDVEHTFEEIKPLYEHLHAYVRAKLMNAYPSYISPIGCLPAHLLGDMWGRFWTNLYSLTVPFGQKPNIDVTDAMVDQAWDAQRIFKEAEKFFVSVGLPNMTQGFWENSMLTDPGNVQKAVCHPTAWDLGKGDFRILMCTKVTMDDFLTAHHEMGHIQYDMAYAAQPFLLRNGANEGFHEAVGEIMSLSAATPKHLKSIGLLSPDFQEDNETEINFLLKQALTIVGTLPFTYMLEKWRWMVFKGEIPKDQWMKKWWEMKREIVGVVEPVPHDETYCDPASLFHVSNDYSFIRYYTRTLYQFQFQEALCQAAKHEGPLHKCDISNSTEAGQKLFNMLRLGKSEPWTLALENVVGAKNMNVRPLLNYFEPLFTWLKDQNKNSFVGWSTDWSPYADGGSGMDEKTTGWRGGHVVEGLAGELEQLRARLEHHPQGQREP
[1]
  Response, shift in Wavelength (nm): 0.0102 nm
[2]
  Kd: 401 nM
[3]
  Kd: 10500 nM
